Values quoted from earlier work in patent US11931453B2, “Drug delivery device” (NANO PRECISION MEDICAL, INC., priority 2016, dated 2024).

Details: estimated, based on molecular dimensions of similar peptides (literature)

Substance: GLP-1: Glucagon-Like Peptide-1; exenatide is an analog of GLP-1
- Stokes' diameter / hydrodynamic diameter: about 2.6 nm
